Legend:
[1] = molecular target: Ixonnexin (Ixodes scapularis) (UniProt Q4PMS3); test: SPR; Ixonnexin amine-coupled to a carboxymethylated dextran (CM5) chip, 726.2 RU; analytes injected 120 s at 30 µL/min, 25 °C, dissociation 600 s; global fit with the two-state (conformational change) model, Langmuir 1:1 for plasmin

Substance	Km of plasmin generation (S2251) started with t-PA, with immobilized Ixonnexin (0.5 μg/ml) and increasing Glu-plasminogen (Single-chain t-PA) [µM]	Kd [1] [nM]	ka1 (two-state, first step) [1] [M⁻¹ s⁻¹]	ka2 (two-state, conformational change) [1] [s⁻¹]	kd1 (two-state, first step) [1] [s⁻¹]	kd2 (two-state, conformational change) [1] [s⁻¹]	koff [1] [s⁻¹]	kon [1] [M⁻¹ s⁻¹]
Glu-plasminogen (natural protein)	0.208	19.5	123000	0.022	0.057	0.00099	–	–
Plasmin (enzyme)	–	197	–	–	–	–	0.29	1.48e+06
Single-chain t-PA (enzyme)	–	4.67	413000	0.0097	0.031	0.0015	–	–
Two-chain t-PA (enzyme)	–	10.3	1.2e+06	0.011	0.43	0.0018	–	–

Reference: paper PMC5859130
